In assay [1] the target is pro-nerve growth factor (proNGF, residues 19-241, furin sites changed to AA) (UniProt P01139). The assay is described as follows: SPR; IBIS MX96; NGF, proNGF and proBDNF amine-coupled to a P-COOH SensEye sensor; wt and mutant sSorCS2 flowed as analyte; 25 mM HEPES pH 7.4, 150 mM NaCl, 0.005 % Tween 20; 25 °C; equilibrium binding, one site saturation model (two site saturation model for proBDNF).

Assay [2] deals with mouse mature nerve growth factor (NGF) (mouse) (UniProt P01139). The assay is described as above.
Chain of mouse mature nerve growth factor (NGF) (mouse) (P01139 122-241): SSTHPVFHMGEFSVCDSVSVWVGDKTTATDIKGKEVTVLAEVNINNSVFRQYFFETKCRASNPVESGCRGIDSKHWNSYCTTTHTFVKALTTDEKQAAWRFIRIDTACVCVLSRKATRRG
Assay [3] deals with NGF in the sSorCS2-NGF crystal (degradation product of the proNGF construct) (UniProt P01139). Nature of the assay: crystal structure; sSorCS2 mixed with proNGF 1:1.1, 1 mM calcium chloride; proNGF degraded to NGF in the drop; 0.225 M MES/bis-tris pH 6.6; 3.9 Å.
For assay [4], the target named is mouse SorCS2 mature extracellular segment (sSorCS2, residues 117-1072) (mouse) (UniProt Q9EPR5). The assay is described as above.
Chain of mouse SorCS2 mature extracellular segment (sSorCS2, residues 117-1072) (mouse) (Q9EPR5 117-1072): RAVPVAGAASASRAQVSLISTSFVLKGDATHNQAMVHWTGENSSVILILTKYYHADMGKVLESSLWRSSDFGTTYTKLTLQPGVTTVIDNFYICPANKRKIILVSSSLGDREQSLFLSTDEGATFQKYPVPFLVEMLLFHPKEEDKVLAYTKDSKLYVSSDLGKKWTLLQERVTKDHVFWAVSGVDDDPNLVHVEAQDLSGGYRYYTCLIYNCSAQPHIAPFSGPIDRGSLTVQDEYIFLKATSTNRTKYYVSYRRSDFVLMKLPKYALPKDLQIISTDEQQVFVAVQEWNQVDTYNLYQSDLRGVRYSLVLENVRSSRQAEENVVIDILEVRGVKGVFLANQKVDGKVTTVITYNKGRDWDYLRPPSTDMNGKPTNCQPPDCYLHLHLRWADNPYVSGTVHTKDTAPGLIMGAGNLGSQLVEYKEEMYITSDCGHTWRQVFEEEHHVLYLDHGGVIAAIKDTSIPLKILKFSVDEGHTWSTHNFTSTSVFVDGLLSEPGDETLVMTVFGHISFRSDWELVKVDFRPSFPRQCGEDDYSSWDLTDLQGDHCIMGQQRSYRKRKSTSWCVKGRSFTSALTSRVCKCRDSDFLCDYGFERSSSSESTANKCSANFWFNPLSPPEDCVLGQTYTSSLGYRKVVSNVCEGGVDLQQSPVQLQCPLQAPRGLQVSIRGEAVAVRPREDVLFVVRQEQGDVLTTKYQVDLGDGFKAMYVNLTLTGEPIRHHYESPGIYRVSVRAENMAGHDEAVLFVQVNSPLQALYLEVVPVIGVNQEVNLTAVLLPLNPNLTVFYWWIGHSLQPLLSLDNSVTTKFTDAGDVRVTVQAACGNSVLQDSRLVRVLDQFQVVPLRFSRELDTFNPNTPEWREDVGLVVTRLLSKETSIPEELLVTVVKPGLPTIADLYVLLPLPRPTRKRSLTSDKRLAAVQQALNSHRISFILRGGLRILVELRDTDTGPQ

Chain of mouse SorCS2 mature extracellular segment (sSorCS2, residues 117-1072) (Q9EPR5 117-1072): as above
Chain of mouse SorCS2 mature extracellular segment (sSorCS2, residues 117-1072), Q9EPR5 117-1072 (receptor; other documents disagree on this pair) (Q9EPR5 117-1072): as above

Take “mouse SorCS2 mature extracellular segment (sSorCS2, residues 117-1072) (from UniProt Q9EPR5 117-1072) (receptor)”: the Kd (usually the free concentration of one partner at which half of the binding sites on the other are occupied at equilibrium, for simple one-to-one binding) in assay [1] was determined as 43 nM. Consider “mouse SorCS2 mature extracellular segment (sSorCS2, residues 117-1072), Q9EPR5 117-1072 (receptor; other documents disagree on this pair)”, for which the Kd in assay [2] came out at 236 nM. In the case of “NGF in the sSorCS2-NGF crystal (degradation product of the proNGF construct) (from UniProt P01139 122-241) (ligand)”, the stoichiometry N – broadly, a count of units in the complex or per binding partner – in assay [3] turned out to be 2. Besides, the stoichiometry N (NGF chains per sSorCS2 chain) in assay [4] came to 2.
